Data reported in IntAct's records for PubMed 26751287.

B1: Transmembrane glycoprotein NMB (Homo sapiens), Q14956-1 (parent)
chain: MECLYYFLGFLLLAARLPLDAAKRFHDVLGNERPSAYMREHNQLNGWSSDENDWNEKLYPVWKRGDMRWKNSWKGGRVQAVLTSDSPALVGSNITFAVNLIFPRCQKEDANGNIVYEKNCRNEAGLSADPYVYNWTAWSEDSDGENGTGQSHHNVFPDGKPFPHHPGWRRWNFIYVFHTLGQYFQKLGRCSVRVSVNTANVTLGPQLMEVTVYRRHGRAYVPIAQVKDVYVVTDQIPVFVTMFQKNDRNSSDETFLKDLPIMFDVLIHDPSHFLNYSTINYKWSFGDNTGLFVSTNHTVNHTYVLNGTFSLNLTVKAAAPGPCPPPPPPPRPSKPTPSLATTLKSYDSNTPGPAGDNPLELSRIPDENCQINRYGHFQATITIVEGILEVNIIQMTDVLMPVPWPESSLIDFVVTCQGSIPTEVCTIISDPTCEITQNTVCSPVDVDEMCLLTVRRTFNGSGTYCVNLTLGDDTSLALTSTLISVPDRDPASPLRMANSALISVGCLAIFVTVISLLVYKKHKEYNPIENSPGNVVRSKGLSVFLNRAKAVFFPGNQEKDPLLKNQEFKGVS

Variants of: B1
Conditions: with ptk6_human PTK6, Q13882

| Variant | effect of a mutation on the interaction |
| --- | --- |
| MECLYYFLGFLLLAARLPLDAAKRFHDVLGNERPSAYMREHNQLNGWSSDENDWNEKLYPVWKRGDMRWKNSWKGGRVQAVLTSDSPALVGSNITFAVNLIFPRCQKEDANGNIVYEKNCRNEAGLSADPYVYNWTAWSEDSDGENGTGQSHHNVFPDGKPFPHHPGWRRWNFIYVFHTLGQYFQKLGRCSVRVSVNTANVTLGPQLMEVTVYRRHGRAYVPIAQVKDVYVVTDQIPVFVTMFQKNDRNSSDETFLKDLPIMFDVLIHDPSHFLNYSTINYKWSFGDNTGLFVSTNHTVNHTYVLNGTFSLNLTVKAAAPGPCPPPPPPPRPSKPTPSLATTLKSYDSNTPGPAGDNPLELSRIPDENCQINRYGHFQATITIVEGILEVNIIQMTDVLMPVPWPESSLIDFVVTCQGSIPTEVCTIISDPTCEITQNTVCSPVDVDEMCLLTVRRTFNGSGTYCVNLTLGDDTSLALTSTLISVPDRDPASPLRMANSALISVGCLAIFVTVISLLVYKKHKEFNPIENSPGNVVRSKGLSVFLNRAKAVFFPGNQEKDPLLKNQEFKGVS [Y525F] | disrupting interaction strength |
